Measured values from publication PMC11784312 (Journal of Virology, 2024).

Tests used:
[1] = biological target: SD008 HA expressed from pcDNA 3.1-SD008-HA (Influenza A virus …, UniProt A0A2D0Z8H0, strain); experiment: immunostaining of cells or tissue; settings: one partner purified
[2] = biological target: T1, hemagglutinin of A/chicken/Guangdong/SD008/2017 (H7N9) (Influenza A virus …, UniProt A0A2D0Z8H0, strain); experiment: ELISA; settings: both partners purified
[3] = biological target: T1, hemagglutinin of …; experiment: flow cytometry on cells; settings: one partner purified

| Binder | binding result [1] | binding result [2] | binding result [3] |
| --- | --- | --- | --- |
| 2D7 neutralizing antibody (antibody, V domains shown, whole murine IgG) VH: VQLQESGPGLVKPSQSLSLTCTVTGYSITSDYTWNWIRQFPGNKLEWMGYISYSGSTSYNPSLKSRMSITRDTSKNQFLLQLNSVTTADTATYYCTRDGPYWHIDVWGAGTTVTVSS VL: DIQMNQSPSSLSASLGDTITITCHASQTINIWLSWYQLKPGNIPKLLIYKASNLHTGVPSRFSGSGSGTGFTLTISSLQPEDIASYYCQQGQSFPYTFGGGTKLEIK | binds | binds | – |
| 1H9 neutralizing antibody (antibody, V domains shown, also called nAb 1H9; source: mouse hybridoma, ascites of BALB/c mice, purified (protein G agarose)) VH: VQLQESGPGLVKPSQSLSLTCTVTGYSITSDYTWNWIRQFPGNKLEWMGYITYSDTTSYNPSLKSRISITRDTSKNQFFLQLNSVTTEDTATYYCARSDGWYGFAYWGQGTLVTVSA VL: DIQMNQSPSSLSASLGDTITITCHASQNINVWLSWYQQKPGNIPKLLIYKAFDLHTGVPSRFSGSGSGTGFTLTISSLQPEDIATYYCQQGQTYPFTFGGGTKLEIK | binds | – | binds |
